Like-named read-outs stand apart in the source and are kept apart here.
T1: VEGF (as used in the HUVEC migration assay) (Homo sapiens (Human), UniProt P15692 181-395)
T1 sequence: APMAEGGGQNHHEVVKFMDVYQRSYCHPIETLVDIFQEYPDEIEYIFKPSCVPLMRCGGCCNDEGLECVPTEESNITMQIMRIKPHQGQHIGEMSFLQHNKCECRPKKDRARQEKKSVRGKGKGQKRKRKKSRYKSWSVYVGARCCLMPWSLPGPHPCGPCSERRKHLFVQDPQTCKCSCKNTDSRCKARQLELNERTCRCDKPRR

T2: human VEGF (hVEGF) (human, UniProt P15692 181-395)
T2 construct: also called VEGF-A
T2 sequence: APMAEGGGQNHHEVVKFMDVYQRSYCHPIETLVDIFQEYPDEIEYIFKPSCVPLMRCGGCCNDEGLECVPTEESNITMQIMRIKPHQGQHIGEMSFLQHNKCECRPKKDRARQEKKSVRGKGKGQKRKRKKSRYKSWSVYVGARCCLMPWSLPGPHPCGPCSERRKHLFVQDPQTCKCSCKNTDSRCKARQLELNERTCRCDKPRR


Tests used:
[1] = target: T1, VEGF (as used in the HUVEC migration …); test: cell-based or functional assay
[2] = target: T2, human VEGF (hVEGF); test: SPR
Description: (§1) To determine the binding affinity of selected Fab variants, SPR measurement with a BIACORE® T200 instrument was used. Briefly, series S sensor chip CM5 was activated with 1-ethyl-3-(3-dimethylaminopropyl) carbodiimide (EDC) and N-hydroxysuccinimide (NHS) reagents according to the supplier's instructions, and human VEGF (hVEGF) was coupled to achieve 50-80 response units (RU), then following by blocking un-reacted groups with 1M ethanolamine.
(§2) Three-fold serial dilutions of Fab in HBS-P buffer (0.01 M HEPES pH 7.4, 0.15 M NaCl, 0.005% surfactant P20) from low (0.02 nM) to high (50 nM) were injected (flow rate: 30 μl/min). The binding responses on hVEGF were corrected by subtracting of RU from a blank flow cell. The sensorgram was recorded and subject to reference and buffer subtraction before evaluating by BIACORE® T200 Evaluation Software (version 2.0). Association rates (kₒₙ) and dissociation rates (koff) were calculated using a simple one-to-one Langmuir binding model. The equilibrium dissociation constant (Kd) was calculated as the ratio koff/kₒₙ.

[3] = target: T2, human VEGF (hVEGF); test: SPR; remark: listed apart in the source
Description: as §1, §2

[4] = target: T2, human VEGF (hVEGF); test: BIACORE SPR on immobilised hVEGF; label beside the mutation on the structure of the VEGF-bound G6 Fab (PDB 2FJG)
[5] = target: T2, human VEGF (hVEGF); test: SPR single-cycle
Description: as §1, §2

[6] = target: T2, human VEGF (hVEGF); test: SPR; remark: listed apart in the source
[7] = target: T2, human VEGF (hVEGF); test: SPR; remark: listed apart in the source
Description: as §1, §2

[8] = target: T2, human VEGF (hVEGF); test: BIACORE SPR on immobilised hVEGF; label beside the mutation on the structure of the VEGF-bound G6 Fab (PDB 2FJG); remark: listed apart in the source

Row | Binder | IC50 relative to G6.31, VEGF-induced HUVEC migration [1] | Kd [2] | koff [2] | kon [2] | Kd [3] | koff [3] | kon [3] | fold change in binding affinity (Kd) compared to G6.31 [4] | Fold difference (relative to G6.31) [5] | Kd [5] | koff [5] | kon [5] | fold increase in affinity compared to wild-type G6.31 [6] | Fold improved (relative to WT) [7] | Kd [7] | koff [7] | kon [7] | fold change in binding affinity (Kd) compared to G6.31 [8]
1 | G6.31 AAEE (LC-N94A.LC-F83A.HC-A40E.HC-T57E) (Fab, V domains shown, Fab; also called HC-A40E, HC-T57E, LC-F83A, LC-N94A) VH: EVQLVESGGGLVQPGGSLRLSCAASGFTISDYWIHWVRQEPGKGLEWVAGITPAGGYEYYADSVKGRFTISADTSKNTAYLQMNSLRAEDTAVYYCARFVFFLPYAMDYWGQGTLVTVSS VL: DIQMTQSPSSLSASVGDRVTITCRASQDVSTAVAWYQQKPGKAPKLLIYSASFLYSGVPSRFSGSGSGTDFTLTISSLQPEDAATYYCQQGYGAPFTFGQGTKVEIK | 0.9 fold | 0.58 nM | 0.000741 s⁻¹ | 1.27e+06 M⁻¹ s⁻¹ | 0.584 nM | 0.000741 s⁻¹ | 1.27e+06 M⁻¹ s⁻¹ |  |  |  |  |  |  |  |  |  |  | 
2 | G6.31 HC-N82aR (Fab, name in Kabat numbering, V domains shown, Fab) VH: EVQLVESGGGLVQPGGSLRLSCAASGFTISDYWIHWVRQAPGKGLEWVAGITPAGGYTYYADSVKGRFTISADTSKNTAYLQMRSLRAEDTAVYYCARFVFFLPYAMDYWGQGTLVTVSS VL: DIQMTQSPSSLSASVGDRVTITCRASQDVSTAVAWYQQKPGKAPKLLIYSASFLYSGVPSRFSGSGSGTDFTLTISSLQPEDFATYYCQQGYGNPFTFGQGTKVEIK |  |  |  |  |  |  |  | 7 x | 6.7 fold | 0.23 nM | 0.000322 s⁻¹ | 1.39e+06 M⁻¹ s⁻¹ | ~6.6 fold | 6.8 fold | 0.077 nM | 0.000124 s⁻¹ | 1.62e+06 M⁻¹ s⁻¹ | 
3 | G6.31 HC-T57E (Fab, name in Kabat numbering, V domains shown, Fab) VH: EVQLVESGGGLVQPGGSLRLSCAASGFTISDYWIHWVRQAPGKGLEWVAGITPAGGYEYYADSVKGRFTISADTSKNTAYLQMNSLRAEDTAVYYCARFVFFLPYAMDYWGQGTLVTVSS VL: DIQMTQSPSSLSASVGDRVTITCRASQDVSTAVAWYQQKPGKAPKLLIYSASFLYSGVPSRFSGSGSGTDFTLTISSLQPEDFATYYCQQGYGNPFTFGQGTKVEIK |  |  |  |  |  |  |  | 8 x | 7.7 fold | 0.2 nM | 0.000402 s⁻¹ | 1.93e+06 M⁻¹ s⁻¹ | 8 to 9 fold |  |  |  |  | 
4 | G6.31 HC-Y58R (Fab, name in Kabat numbering, V domains shown, Fab) VH: EVQLVESGGGLVQPGGSLRLSCAASGFTISDYWIHWVRQAPGKGLEWVAGITPAGGYTRYADSVKGRFTISADTSKNTAYLQMNSLRAEDTAVYYCARFVFFLPYAMDYWGQGTLVTVSS VL: DIQMTQSPSSLSASVGDRVTITCRASQDVSTAVAWYQQKPGKAPKLLIYSASFLYSGVPSRFSGSGSGTDFTLTISSLQPEDFATYYCQQGYGNPFTFGQGTKVEIK |  |  |  |  |  |  |  | 9 x | 9.1 fold | 0.17 nM | 0.000255 s⁻¹ | 1.48e+06 M⁻¹ s⁻¹ | 8 to 9 fold | 6.9 fold | 0.076 nM | 0.000184 s⁻¹ | 2.42e+06 M⁻¹ s⁻¹ | 
5 | G6.31 LC-D28R (Fab, V domains shown, Fab) VH: EVQLVESGGGLVQPGGSLRLSCAASGFTISDYWIHWVRQAPGKGLEWVAGITPAGGYTYYADSVKGRFTISADTSKNTAYLQMNSLRAEDTAVYYCARFVFFLPYAMDYWGQGTLVTVSS VL: DIQMTQSPSSLSASVGDRVTITCRASQRVSTAVAWYQQKPGKAPKLLIYSASFLYSGVPSRFSGSGSGTDFTLTISSLQPEDFATYYCQQGYGNPFTFGQGTKVEIK |  |  |  |  |  |  |  |  | 2.8 fold | 0.56 nM | 0.000655 s⁻¹ | 1.17e+06 M⁻¹ s⁻¹ |  |  |  |  |  | 3 x
6 | G6.31 LC-F83A (Fab, V domains shown, Fab) VH: EVQLVESGGGLVQPGGSLRLSCAASGFTISDYWIHWVRQAPGKGLEWVAGITPAGGYTYYADSVKGRFTISADTSKNTAYLQMNSLRAEDTAVYYCARFVFFLPYAMDYWGQGTLVTVSS VL: DIQMTQSPSSLSASVGDRVTITCRASQDVSTAVAWYQQKPGKAPKLLIYSASFLYSGVPSRFSGSGSGTDFTLTISSLQPEDAATYYCQQGYGNPFTFGQGTKVEIK |  |  |  |  |  |  |  |  | 3.1 fold | 0.5 nM | 0.000433 s⁻¹ | 855000 M⁻¹ s⁻¹ | 3 fold | 4 fold | 0.132 nM | 0.000218 s⁻¹ | 1.65e+06 M⁻¹ s⁻¹ | 3 x

From patent US20210115124A1 (Genentech, published 2021)
